# Assay results reported in US20170088624A1 (Janssen / Centocor, published 2017).
# Legend:
# [1] = biological target: T1, human CD40 (SPR analyte) (human, UniProt P25942 21-193); assay: SPR ProteOn XPR36, mAb captured by anti-human IgG Fc, CD40 as analyte, 25 C; mean of n = 5 (SD 0.97E-03); did not fit well to 1:1 model
# T1 construct: also called huCD40-ECD
# Method: (§1) Affinity measurements were performed using Surface Plasmon Resonance (SPR) using a ProteOn XPR36 system (BioRad). […] Approximately 5000 RU (response units) of mAbs were immobilized. The kinetic experiments were performed at 25° C. in running buffer (DPBS+0.01% P20+100 μg/ml BSA). To perform kinetic experiments, 200 RU of mAbs were captured followed by injections of analytes (human or cyno CD40) at 5 concentrations (in a 4-fold serial dilution). The association phase was monitored for 3 minutes at 50 μL/min, then followed by 15 minutes of buffer flow (dissociation phase). The chip surface was regenerated with two 18 second pulses of 100 mM H₃PO₄ (Sigma, Cat#7961) at 100 μL/min.
# (§2) The collected data were processed using ProteOn Manager software. First, the data was corrected for background using inter-spots. Then, double reference subtraction of the data was performed by using the buffer injection for analyte injections. The kinetic analysis of the data was performed using a Langmuir 1:1 binding model. The result for each mAb was reported in the format of Ka (On-rate), Kd (Off-rate) and KD (equilibrium dissociation constant).
# (§3) The parameters reported in this table were obtained from a 1:1 Langmuir binding model for all samples. Affinity, KD=kd/ka.
# [2] = biological target: T2, Full length human CD40 (huCD40) on cells (human, UniProt P25942 21-277); assay: flow cytometry, HEK-Blue CD40L cells; separate experiment
# T2 construct: CD40 on human mature DCs, human B cells, Raji cells and HEK-Blue CD40L cells (stably expressing human CD40); also called TNFRSF5
# [3] = biological target: T2, Full length human CD40 (huCD40) on cells; assay: cell-based or functional assay
# [4] = biological target: T2, Full length human CD40 (huCD40) on cells; assay: flow cytometry, human DCs; separate experiment
# [5] = biological target: T2, Full length human CD40 (huCD40) on cells; assay: flow cytometry, human B cells
# Target sequence in this assay (P25942 21-277): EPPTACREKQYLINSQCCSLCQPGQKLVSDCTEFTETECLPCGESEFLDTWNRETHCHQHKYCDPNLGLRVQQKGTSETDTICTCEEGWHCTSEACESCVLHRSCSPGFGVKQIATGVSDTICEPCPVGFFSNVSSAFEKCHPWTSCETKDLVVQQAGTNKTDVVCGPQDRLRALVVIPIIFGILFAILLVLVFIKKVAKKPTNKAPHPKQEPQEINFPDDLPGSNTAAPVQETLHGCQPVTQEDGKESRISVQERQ
# [6] = biological target: T3, cyno CD40 (SPR analyte) (Macaca fascicularis (cynomolgus), UniProt P25942 21-193 (human entry), limits assumed); assay: SPR ProteOn XPR36, mAb captured by anti-human IgG Fc, cyno CD40 as analyte, 25 C; mean of n = 3 (SD 0.07E-03)
# T3 construct: also called cCD40-ECD
# T3 chain: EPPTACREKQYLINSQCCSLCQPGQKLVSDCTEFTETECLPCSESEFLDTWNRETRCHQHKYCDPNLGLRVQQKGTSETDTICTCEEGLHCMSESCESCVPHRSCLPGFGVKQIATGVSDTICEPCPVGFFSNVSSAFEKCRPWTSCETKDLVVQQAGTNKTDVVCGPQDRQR
# Method: as §1, §2
# [7] = biological target: T3, cyno CD40 (SPR analyte); assay: SPR ProteOn XPR36, mAb captured by anti-human IgG Fc, cyno CD40 as analyte, 25 C; mean of n = 3 (SD 1.02E+05)
# Method: as §1, §2
# [8] = biological target: T2, Full length human CD40 (huCD40) on cells; assay: cell-based or functional assay; remark: listed apart in the source
# Target sequence in this assay (P25942 21-277): as the sequence (P25942 21-277) above
# [9] = biological target: T2, Full length human CD40 (huCD40) on cells; assay: flow cytometry, human B cells; separate experiment
# [10] = biological target: T1, human CD40 (SPR analyte); assay: SPR ProteOn XPR36, mAb captured by anti-human IgG Fc, CD40 as analyte, 25 C; mean of n = 5 (SD 1.51E-09); did not fit well to 1:1 model
# Method: as §1, §2, §3
# [11] = biological target: T2, Full length human CD40 (huCD40) on cells; assay: flow cytometry, HEK-Blue CD40L cells
# Target sequence in this assay (P25942 21-277): as the sequence (P25942 21-277) above
# [12] = biological target: T1, human CD40 (SPR analyte); assay: SPR ProteOn XPR36, mAb captured by anti-human IgG Fc, CD40 as analyte, 25 C; mean of n = 5 (SD 1.83E+05); did not fit well to 1:1 model
# Method: as §1, §2, §3
# [13] = biological target: T2, Full length human CD40 (huCD40) on cells; assay: cell-based or functional assay; remark: listed apart in the source
# Target sequence in this assay (P25942 21-277): as the sequence (P25942 21-277) above
# [14] = biological target: T4, Macaca fascicularis (cyno) CD40 (cCD40) on cells (Macaca fascicularis (cynomolgus), UniProt P25942 21-277 (human entry)); assay: flow cytometry, cyno mature DCs
# T4 construct: CD40 on cyno mature DCs
# T4 chain: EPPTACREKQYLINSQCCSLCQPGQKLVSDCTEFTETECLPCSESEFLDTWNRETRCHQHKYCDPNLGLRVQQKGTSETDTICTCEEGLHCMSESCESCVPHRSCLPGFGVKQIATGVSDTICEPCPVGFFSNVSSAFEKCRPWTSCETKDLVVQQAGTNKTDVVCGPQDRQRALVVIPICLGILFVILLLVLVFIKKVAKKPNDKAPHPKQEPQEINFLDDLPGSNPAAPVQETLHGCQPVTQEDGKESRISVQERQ
# [15] = biological target: T3, cyno CD40 (SPR analyte); assay: SPR ProteOn XPR36, mAb captured by anti-human IgG Fc, cyno CD40 as analyte, 25 C; mean of n = 3 (SD 0.24E-09)
# Method: as §1, §2, §3
# [16] = biological target: T2, Full length human CD40 (huCD40) on cells; assay: flow cytometry, Raji cells
# Target sequence in this assay (P25942 21-277): as the sequence (P25942 21-277) above
# [17] = biological target: T2, Full length human CD40 (huCD40) on cells; assay: flow cytometry, human mature DCs
# Target sequence in this assay (P25942 21-277): as the sequence (P25942 21-277) above
# [18] = biological target: T2, Full length human CD40 (huCD40) on cells; assay: flow cytometry, human DCs
# [19] = biological target: T2, Full length human CD40 (huCD40) on cells; assay: flow cytometry, HEK-Blue CD40L cells; remark: listed apart in the source
binder,measurement,setting,value
"C40M9 (antibody, human IgG1, lambda, V domains shown) VH: QLQLQESGPGLVKPSEILSLTCTVSGGSISSSSYYWGWIRQPPGKGLEWIGNIYYRGDTYYSPSLKSRVTISVDTSKNQFSLKLNSVTAADTAVYYCAKGFRFDYWGQGTLVTVSS VL: QSALTQPPSASGSPGQSVTISCTGTSSDVGGYNYVSWYQQHPGKAPKLMIYEVSKRPSGVPDRFSGSKSGNTASLTVSGLQAEDEADYYCSSYAGSNNLVFGGGTKLTVLG",koff,[1],0.00285 s⁻¹
same,EC50,[2],615 ng/mL
same,"EC50, Human B cells (CD83)",[3],0.766 ng/mL
same,"EC50, Human B cells (CD83), separate experiment",[3],0.145 ng/mL
same,"EC50, Human DC (HLA-DR)",[3],118 ng/mL
same,"EC50, Human DC (HLA-DR), separate experiment",[3],16.7 ng/mL
same,"EC50, agonistic activity on HEK-Blue™ CD40L cells (NF-κB/SEAP)",[3],13.8 ng/mL
same,"EC50, agonistic activity on HEK-Blue™ CD40L cells (NF-κB/SEAP), separate experiment",[3],6.21 ng/mL
same,EC50,[4],46.2 ng/mL
same,EC50,[5],60.9 ng/mL
same,koff,[6],0.00126 s⁻¹
same,kon,[7],901000 M⁻¹ s⁻¹
same,"DC EC50, CD80 surface expression, with cross-linker",[8],27.7 ng/mL
same,"DC EC50, CD83 surface expression, with cross-linker",[8],39.8 ng/mL
same,"DC EC50, CD86 surface expression, with cross-linker",[8],103 ng/mL
same,"DC EC50, HLA-DR surface expression, with cross-linker",[8],79.7 ng/mL
same,EC50,[9],19.1 ng/mL
same,Kd,[10],4.09 nM
same,EC50,[11],94.2 ng/mL
same,kon,[12],727000 M⁻¹ s⁻¹
same,"B cells EC50, CD23 surface expression, with cross-linker",[13],2.87 ng/mL
same,"B cells EC50, CD80 surface expression, with cross-linker",[13],13.1 ng/mL
same,"B cells EC50, CD83 surface expression, with cross-linker",[13],0.00668 ng/mL
same,"B cells EC50, CD86 surface expression, with cross-linker",[13],0.0109 ng/mL
same,"B cells EC50, HLA-DR surface expression, with cross-linker",[13],0.012 ng/mL
same,EC50,[14],45.1 ng/mL
same,Kd,[15],1.42 nM
same,EC50,[16],57.1 ng/mL
same,EC50,[17],123 ng/mL
same,EC50,[18],152 ng/mL
same,EC50,[19],143 ng/mL
